In patent US20140031234A1 (published 2014):

Target: the molecule itself
Test: Sephacryl S100 gel filtration; self-association

B1: Strep-tagged Δ513 of NPR1 (other)
chain: AVLDQIMNCEDLTQLACGEDDTAEKRLQKKQRYMEIQETLKKAFSEDNLELGNSSLTDSTSSTSKSTGGKRSNRKLSHRRR
notes: E. coli-produced; used in S100 gel filtration; not shown: N-terminal Strep-Tag (and any vector linker)
B1: binds.
